5 substances from patent US20260085338 can be followed below.

Data set [1] has as its system phi15 RNA polymerase.
The subject of data set [2] is 67PfluR64PP RNA polymerase.
For data set [3], the system named is PPPL-1 RNA polymerase.
Data set [4] relates to Pf-10 RNA polymerase.

On to 67PfluR64PP lysozyme, for which the “reduction of leaky msfGFP expression caused by the phi15 RNAP (P. putida, 4 mM Rha)” value in data set [1] is recorded as “The 67PfluR64PP lysozyme reduced the leaky expression by 58%”. The “reduction of msfGFP output upon lysozyme induction (P. putida, 4 mM Rha)” value in data set [2] is 67PfluR64PP (-51%).
On to PPPL-1 lysozyme, for which the “reduction of msfGFP output upon lysozyme induction (P. putida, 4 mM Rha)” value in data set [3] is on record as “PPPL-1 (-39%)”.
On to Pf-10 lysozyme, for which the “reduction of msfGFP output upon lysozyme induction (P. putida, 4 mM Rha)” value in data set [4] was “Pf-10 (-80%)”.
In the case of phi15 lysozyme (G3RQ), in data set [1], the “dynamic range of the system (fold induction), lysozyme integrated in PP4305, P. putida SEM11” value was “the dynamic range of the system increased from 33 to 107- and 70-fold, respectively”; the “dynamic range of the system (fold induction), lysozyme integrated in PP5388, P. putida SEM11” value is “the dynamic range of the system increased from 33 to 107- and 70-fold, respectively”.
As to phi15 lysozyme (wild-type), the “reduction of msfGFP output upon lysozyme induction (P. putida, 4 mM Rha)” value in data set [1] was “The phi15 lysozyme caused only a -30% reduction of the msfGFP output”.
